{"source": "patent US20220323614A1", "about": "“KRAS-SPECIFIC CYCLIC PEPTIDES, COMPOSITIONS, AND METHODS OF USING AND MAKING” (Indi Molecular, Inc., priority 2021, published 2022)", "binders": {"B1": {"name": "Ac-(Tic)kyf-Lys(Pal) (peptide)", "peptide": "Ac-[Tic][dK][dY][dF]K(Palmitoyl)", "modifications": "triazole (positions not given here); also: cyclic via triazole, ring-closing residues not given here"}, "B2": {"name": "Ac-(Thz)kyf-Lys(Pal) (peptide)", "peptide": "Ac-[Thz′][dK][dY][dF]K(Palmitoyl)", "modifications": "triazole (positions not given here); reading uncertain; also: cyclic via triazole, ring-closing residues not given here, printed as Ac-(Thz)kyf-Lys(Pal)"}, "B3": {"name": "Ac-w(Dab)yf-Lys(Pal) (peptide)", "peptide": "Ac-[dW][Dab][dY][dF]K(Palmitoyl)", "modifications": "triazole (positions not given here); also: cyclic via triazole, ring-closing residues not given here"}, "B4": {"name": "Ac-wk(4-Br-f)f-Lys(Pal) (peptide)", "peptide": "Ac-[dW][dK][dPhe(4-Br)][dF]K(Palmitoyl)", "modifications": "triazole (positions not given here); also: cyclic via triazole, ring-closing residues not given here"}, "B5": {"name": "Ac-wky(4-F-f)-Lys(Pal) (peptide)", "peptide": "Ac-[dW][dK][dY][4‑F‑f]K(Palmitoyl)", "modifications": "triazole (positions not given here); also: cyclic via triazole, ring-closing residues not given here"}, "B6": {"name": "Ac-wky(4-Cl-f)-Lys(Pal) (peptide)", "peptide": "Ac-[dW][dK][dY][4‑Cl‑f]K(Palmitoyl)", "modifications": "triazole (positions not given here); also: cyclic via triazole, ring-closing residues not given here"}, "B7": {"name": "Ac-wky(4-Br-f)-Lys(Pal) (peptide)", "peptide": "Ac-[dW][dK][dY][dPhe(4-Br)]K(Palmitoyl)", "modifications": "triazole (positions not given here); also: cyclic via triazole, ring-closing residues not given here"}, "B8": {"name": "Ac-wky(Cha)-Lys(Pal) (peptide)", "peptide": "Ac-[dW][dK][dY][Cha]K(Palmitoyl)", "modifications": "triazole (positions not given here); also: cyclic via triazole, ring-closing residues not given here"}, "B9": {"name": "Ac-wky(Phf)-Lys(Pal) (peptide)", "peptide": "Ac-[dW][dK][dY][Phf]K(Palmitoyl)", "modifications": "triazole (positions not given here); reading uncertain; also: cyclic via triazole, ring-closing residues not given here, printed as Ac-wky(Phf)-Lys(Pal)"}, "B10": {"name": "Ac-wky(2-Nal)-Lys(Pal) (peptide)", "peptide": "Ac-[dW][dK][dY][2Nal]K(Palmitoyl)", "modifications": "triazole (positions not given here); also: cyclic via triazole, ring-closing residues not given here"}, "B11": {"name": "Ac-wkyf-Az2-Lys(Pal) (peptide)", "peptide": "Ac-[dW][dK][dY][dF][Az2]K(Palmitoyl)", "modifications": "triazole (positions not given here); also: cyclic via triazole, other ring-closing residue not given here"}}, "note": "Primed or numbered codes have the meaning given here. Where no end group is shown, it is not given here. [ ]: non-standard residue; d: D form. The star is where a group is joined. Az2 = aminoazidobutanoic acid, ring closure; dPhe(4-Br) = N[C@H](Cc1ccc(Br)cc1)C(=O)O; 2Nal = N[C@@H](Cc1ccc2ccccc2c1)C(=O)O; Palmitoyl = CCCCCCCCCCCCCCCC(=O)*; Tic = O=C(O)[C@@H]1Cc2ccccc2CN1; Cha = N[C@@H](CC1CCCCC1)C(=O)O; Dab = NCC[C@H](N)C(=O)O; Thz′ = not defined here; Phf = not defined here", "data": [{"target": "KRAS (G12D) as expressed in G12D-mutant cancer cells (AsPC-1, SW 1990, pancreatic cancer cells) (human) (UniProt P01116)", "test": "cell-based or functional assay", "values": [{"binder": "B1", "pERK G12D (AsPC-1 at 4 µM for 12 hours)": 0.974}, {"binder": "B2", "pERK G12D (AsPC-1 at 4 µM for 12 hours)": 1.11}, {"binder": "B3", "pERK G12D (AsPC-1 at 4 µM for 12 hours)": 0.625}, {"binder": "B4", "pERK G12D (AsPC-1 at 4 µM for 12 hours)": 0.776}, {"binder": "B5", "pERK G12D (AsPC-1 at 4 µM for 12 hours)": 1.14}, {"binder": "B6", "pERK G12D (AsPC-1 at 4 µM for 12 hours)": 0.8}, {"binder": "B7", "pERK G12D (AsPC-1 at 4 µM for 12 hours)": 0.606}, {"binder": "B8", "pERK G12D (AsPC-1 at 4 µM for 12 hours)": 1.13}, {"binder": "B9", "pERK G12D (AsPC-1 at 4 µM for 12 hours)": 1.32}, {"binder": "B10", "pERK G12D (AsPC-1 at 4 µM for 12 hours)": 0.71}, {"binder": "B11", "pERK G12D (AsPC-1 at 4 µM for 12 hours)": 0.794}]}, {"target": "KRAS (WT) as expressed in BxPC-3 cells (human) (UniProt P01116)", "test": "cell-based or functional assay", "values": [{"binder": "B1", "pERK WT (BxPC-3 at 4 µM for 12 hours)": 0.806}, {"binder": "B2", "pERK WT (BxPC-3 at 4 µM for 12 hours)": 0.851}, {"binder": "B3", "pERK WT (BxPC-3 at 4 µM for 12 hours)": 0.982}, {"binder": "B4", "pERK WT (BxPC-3 at 4 µM for 12 hours)": 0.895}, {"binder": "B5", "pERK WT (BxPC-3 at 4 µM for 12 hours)": 1.71}, {"binder": "B6", "pERK WT (BxPC-3 at 4 µM for 12 hours)": 1.05}, {"binder": "B7", "pERK WT (BxPC-3 at 4 µM for 12 hours)": 1.09}, {"binder": "B8", "pERK WT (BxPC-3 at 4 µM for 12 hours)": 1.27}, {"binder": "B9", "pERK WT (BxPC-3 at 4 µM for 12 hours)": 0.757}, {"binder": "B10", "pERK WT (BxPC-3 at 4 µM for 12 hours)": 0.871}, {"binder": "B11", "pERK WT (BxPC-3 at 4 µM for 12 hours)": 1.16}]}]}
